Assay: soluble fraction after stress (log2 fold change); higher = more stays soluble; pooled small domains, quantitative proteomics
Settings: stress: 50 degC
In short: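 The measure of aggregation propensity here is the base-two logarithm of the fold change in the soluble amount of each protein after stress. A higher value means more of that protein stays in solution. Stress was applied at 50°C to pooled libraries of small protein domains, read out by high-throughput quantitative proteomics.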

Row | Sequence | soluble fraction (log2)
1 | HMQDAVASEKIQLMSEALHARDTGDLLLAKEKVEKLIALAPNDKNIQALLLTINQSIEDKGL | 0.101
2 | HMQDIDIVDLKRISELIYQKYNYDFRNYAMSSFKRRVQRIIELKKLTVDGLIKRLNDTPSFINEFLDELTV | -0.139
3 | HMQDNLKKYMDKLSQRDAELIVYKYLWNMSEKEISEMFHIKQEQVHVYVGRAKKRLFKIIKKEME | -0.025
4 | HMQDRDKNIEEGRQLVLHEMDRLDLVDEPLHDVARQLNMKAVEDMFAAVGAGDLRLGQIIHQLLKQADTN | -0.0442
5 | HMQDSIYYAQYRINIRNMPSSEGMVISRASVGEALEVLDWQEQWSKVRKQSGVEGYVASRLLTK | -1.24
6 | HMQDTIDLVIQVNGKLRGQMNVPKDTDRATIEQLAINLENVQKIVAGNAIKKIIIVPGRLINIVVSKNL | -0.925
7 | HMQDTYQVKLLTNLNIRKSPNGTIVQKGGAKKGIIYTIVETSGTWGRLKSNAGWISVSDKYVTK | -3.43
8 | HMQDVKRYLVNSNQLNVRTGPGKEFEISESLNKGDAVTLLHKESNGWWEVITSTGQGYVYSSMLTKDPW | -0.525
9 | HMQDVVERIKKYKQLFSITSEELSKRSGIPLGTLNKILSSSTKSIKTETLAAIAKGLDVSVSDLVGREK | 0.0602
10 | HMQEAGKWLKKLRTERKITLEQLSKKTGLSVGFLSQFERGLTSIAIDTLEKIAAVFNVTIDYFISP | 0.0423
11 | HMQEEFVAPDVKDGAIVLHKAFGEGTVTKIDKAQKHIRVTFGVGEKTFIFPDAFKQGFLRMKG | 0.348
12 | HMQEERLTFDTLLGISGIGPRLALAVLSRFTPGSLAAAVDAGDTKAFSAVPGVGNRTASRIILELKGKL | -0.771
13 | HMQEGPGLVPDFRGQTMREVLRGGQSLGVRVAVDGTGLAVAQTPEPGSPLNKVSQVTVSFRPP | 0.0873
14 | HMQEINLIGVTGNDLERSALVKLLDGEIIKLSVGDNLNGGRVVDISAVTLTYLKSGQSITLKLPK | -1.01
15 | HMQELGVISEGKYNIELNMVSWNDREPKYDIRSWAPDHSRMGKGISLTEEEMERLVELWNTRNE | -0.248
16 | HMQELKWERNYKLVQDYIKQYGVLPSKNTKYANVSIGRWLTNQHELVKEDNLAPERFEKIKELDT | -0.233
17 | HMQENDLGAVEKIVDDVLHDPKNAQAVADFKAGSEKVLGFLTGQVMKASRGKANPSVVQEVLRQKLKN | -0.00966
18 | HMQENVIIYPNPTKSVIYLSEKVEFILYNILGEIIFIGDNNKIDLNSFDNGVYIFESGNVRTQIIK | 0.0489
19 | HMQEQIVQGIVKYFDAEKQFGFIAGDDGVDRFFNAKSIQGNAVKTGDRVRFLAISHIRGPRALKISA | -0.852
20 | HMQEQSSYVGQFGTAATTLRPSGTVELEDGTRIDVVTVGEFIEKGEPVQVVRKDGTWLVVEKRRSK | 0.286
21 | HMQERKYTVSFNTNGGSTINDQKITSGNVIISPGAPKRSGYTFVGWYYHGQPFDLNTKINQDYVLVAKWIK | -1.16
22 | HMQETILFGQQKAINNLSSDTGLSENDLDSYLKKRYKKPLYQLTQSEGADIINGFQDGSLSKNSILDYIKP | 0.16
23 | HMQEVKVRLKPDYLGEVLIKVISDKGELKAELFVSNSQVRSLLRAYAVEFQNQIRDQGYNFSEINVYR | -0.551
24 | HMQFAEIPNFSEMALQILRLQADGLSITKIAEALHMNPRTVKYHAQENYRKLQASNKSEALLAARNLNL | -1.3
25 | HMQFEIGDTVRVHVNIREGERERVQMFEGTVIAKRGSGVSETFTVRRVSYGVGVERVFPVNSPNV | 0.105
26 | HMQFETVQDAFNHYRNASLEEIESRAAEIKGIIESDPEADVRALNIEIEGLHQAKQNILEKQKTK | -0.0753

Row | Sequence | soluble fraction (log2)
27 | HMQFLGKVTVTHARQANLRAQPSMDAAIVGKVNPGEVYNVVSIPKTSWYEIQLQNGKTVFIAAGMVSFRM | -0.557
28 | HMQFSAVVLDMETRRQVAGVAVYINPKGVVKTDMRGRFVIDGAFNSVTLVRQGYESLTLERSEMTDSIWM | -1.65
29 | HMQGEASDAQLKAIFAIARKLGITDDFEVHRKASRLAGVPEPEVLPSLKSLTYAQASAVIKALQEELE | 0.084
30 | HMQGENDVTIDPKKLTIGDLAKEISKIEDSEELNNILVAEKEGKGRKGAINAITERIENVSGGTG | 0.133
31 | HMQGLIGEQKAIQIALSRVPGAKPEHVRELKLDYDDGMQLYEGEIFYNFREYEFEINAVTGEVVGWEI | -1.6
32 | HMQHRSRALHLQEELVRRYYDQAIAPFMIFWEMKANVTLDQLKELRAVVSPSLNEHPYTKQLDEYIRLAE | -0.505
33 | HMQIEQVDYGTFMTMIDDKKIDKVEIKDNQILFIGKDDNKKYKTGIVQDPQLAERLHASGAVFSQDI | -0.136
34 | HMQIIGEQNQKDFIALFGAILRMRNLLLSFDEFKGNELISERDLQDYLGRYQDLRDEWRNKRRER | 0.0518
35 | HMQINDSSVVQKAVNDVIDQNSKAVSDYWDGKEGAAKFLMGQVMKLTRGQANPDLANQLILTRLQQERV | 0.264
36 | HMQISDEAALLAIVDRVIADNQGPLANYLGGKQSLLGWFVGQVMRATRGQAIPAVVNRLVGERLAAQREE | -0.627
37 | HMQISDESQLREVVSKILEENEQSVIDYKNGKTRAMGFIIGQVMKATRGKANPQLVNEIVKEMLDE | 0.097
38 | HMQISDTASIQEIAKEIIKSNPKAVEDYKKGKENALQFLVGQLMTKTKGTVHPGAARTILGDILK | 0.0851
39 | HMQISDTSELEAVVQDILKANMDVVAKIKAGKTNSANFLMGQVMKLTKGRAKPDTVLQLILDAVKQ | -0.301
40 | HMQISLAAARVNAGLTQEEVAKAMKVGKQTIVSWEKGNSEPKMSQSRELSELYKIPLDYIFYP | -0.322
41 | HMQITDSGAIETIIDKIIADNPGQVTQYLSGKDKVFGFFVGQTMKASQGKANPAEVNKILQEKLK | 0.00553
42 | HMQITQSSEPIDVSALRLGMFIHLEGGWLSHPFPRSSFKITSEDQLVTLRSLGISVLRWSPELSDPE | -0.834
43 | HMQIVPVDYSTFMQSIDDKTVDHVEIQSNQILYTVKDDHKKYKTGIMNDPTLAQRLMESGATFTQD | 0.0939
44 | HMQKAEQIGSLLREKRKSMGLTQDELAQQVEVRRQTLADLELGKNVGSHLLIKVMEHLGVGFDLL | -0.192
45 | HMQKEIKVPDVANMALSEAVEKLQNEGFKVADEQKEVSSDEIEEGKVVKTSPVAGTKKTKGSEITIYISSG | -0.0254
46 | HMQKFLEATGENRDAAVENALEQLGLERDDVSVEVLEIGKKGFLGIGATPARVRVTYEAPDI | -0.0313
47 | HMQKKEVTVPEVRSKSLKEAAQILSEQNLKYETEPVNVENPDMVVIDQFPKPGGKISEQSVIILYLR | ≥ 0.62
48 | HMQKLNIEEQIVYDIIFKNKELSANEIQIKSGIKTSILNALLINLEIKQYIKLKFGNFYEIK | 0.209
49 | HMQKMPEMQILPNGKVKLPDFSGINMRKAAELLQYGKLRLQPYGSGTAYQQKPAAGTEVDEGTVVEIWF | -0.218
50 | HMQKNFYQILGVDSKASPATINAAYERAKSRVIQSGLEDPDTMALLRDAWETLADPGDRAAYDESLAT | 0.0751
51 | HMQKPELLAPAGSLEKAKTAFKYGADAVYMGTSNLSLRSRVTVDDDELIKTIEYAHSINKKVYAALNIYAR | 0.00596
52 | HMQKPWFYESSGQRKGGFSEQEMVGLITDGEITHGAIVWRNGLSDWTKLEQTELAAHLDKTA | -0.249

Row | Sequence | soluble fraction (log2)
53 | HMQKRDQKKRANMLDSLKVGTRIVTIGGIFGEIAKIKDDRIRIKVAEDVEIWIRRAAVGTVIT | -0.207
54 | HMQKTPFEIMTIYKDQILEMLGKDLTATEISIVLKKKGEKVHPREIRKFQLQHYEEVQDMRKKWRE | -1.16
55 | HMQKWILVNKQGRLSGILDHRAFNTRESATAWFQRTSDISGGTIKIDDYYYVLKNEEYKLLKE | -3.15
56 | HMQKYEDIINVTRERLQNKFYSQTVIPTDDDIYIWLDKVAILEEIKLSKEDRQMLFNLLKKEAT | -0.451
57 | HMQLGQMIVKLRKEQGLTQETFAKKFNVTRQTVSNWENEKSYPDLHTLVKISDEFHLSLDILLK | -2.8
58 | HMQLGSILAYKFPQFGGIDGAWQVRDDSNGTGPYIAFWDAKTIGRGMPTEDELTAWAQEYEA | -0.153
59 | HMQLPTPEDLKKRRNELGLTQSDLAKRAGVSQPLIARIESGDVDPRLSTVRKILDAFEEVEKEQQ | 0.0795
60 | HMQLSASQQQILNHAAVNTDGKLVWFPETLKGGARKKVLDSLFSRALITTDGTHWFVAAEGYEALGIP | -0.877
61 | HMQLTDLSALEAIIKEVLAANPKSVEDYKSGKEKAFGSLVGQAMKATKGKANPETVNSLLRKNLN | 0.519
62 | HMQLTDSDFTRLYTYVKNSYGIDLSKKKQLISSRLTNMLIQQGYRDFTQYTDEIISGKNPEMVSAMLNRLT | -0.232
63 | HMQLTPAQHAILAKAIHSSDGKIEWFPDNVKGGARKKVLEGMFNRALITPDGEGWRIAAEGYDALGMPRP | -0.0604
64 | HMQLVGSSAAVLIPAPAGGLGKIRLEFRGQTIDLIAKATDGGALIEGGAVTIVDVRDGQADVSV | -0.552
65 | HMQMMDATLKIPPSMGKLRGTLYELNSVTSEDVDENGQLALHVRLSSVDWQRLKKRFDSNLDELIVQKN | -0.0668
66 | HMQMPLTMATMGEVNKIVKVGGNEETRRFLANLGFVAGAEVVVLSKIGGNVIVNVKDSRVAVNEDMARHIM | -0.997
67 | HMQMSDTAAIGKIVDEVFAENPAALEDYAKGKTNVVDWLTGQVMKKSRGQANPGIASELVQKRLADF | 0.122
68 | HMQMSDTGAIEAMVKEALDENPQAIEDFKNGKGKALGFLMGQVMKKSKGQANGGIVNKLIKEELQKRIG | 0.181
69 | HMQMTKSEFLDALRRALNGNMAAASVDDNIRFYDSYFYTEETKGRSEAEILSELGDPRILARTLIDAAD | 0.0125
70 | HMQNEIQQLAIDLIARAHKSGASDIHIVDTGTYTRIKFRVLGLLREDSQMEAETGRQMISTIYGILG | -0.135
71 | HMQNEKLSYFVTETIVTERADLFITKKFPQFSRSQIQKLINSGNITINSNPIKASTEIINKDNIEITIPV | -1.14
72 | HMQNESGLFTMSDLWEAGLMGSENASRKRAAVGAFLGIGFGNGKQFLKRLNHFGVTKEEWESALEQLGE | -0.684
73 | HMQNEVMPYSTFLSEVNSGNVTKVKIDHEQLTGTLKSGKQFTTYILDAATLPSIVAEKGVEVEVVPP | 0.357
74 | HMQNGNYVVQRQDSLWSIAARISGQTHQPIGEVMNHIKALNEHAFVGGNVNRLRTGTNLNLG | -0.156
75 | HMQNKRQEQLLALLAERRDYMTSRQLAEILQVSDRTIRSDVEAINRRSSPPPIESNVRQGYRLNPEA | 0.0852
76 | HMQNNIEFTVLEEDAQKRLDVLLSEKTALSRSASASLIEEGGVLVNGRKEPKKYKPVRGEIITAILPE | -0.0707

— the domain aggregation screens of Martell et al. (2025)
